Test results taken from PMC6468047, “Cannabinoid CB1 and CB2 Receptor-Mediated Arrestin Translocation: Species, Subtype, and Agonist-Dependence” (Frontiers in Pharmacology, 2019).
Where two headings read alike, the source gives them in different places.

Tests used:
[1] = biological target: human D2 dopamine receptor (3HA-hD2R) (human) (UniProt P14416)
[2] = biological target: human vasopressin receptor 2 (3HA-hV2R) (human) (UniProt P30518)
[3] = biological target: human cannabinoid receptor 1 (pplss-3HA-hCB1) (human) (UniProt P21554)
Chain of human cannabinoid receptor 1 (pplss-3HA-hCB1) (human) (P21554 whole entry): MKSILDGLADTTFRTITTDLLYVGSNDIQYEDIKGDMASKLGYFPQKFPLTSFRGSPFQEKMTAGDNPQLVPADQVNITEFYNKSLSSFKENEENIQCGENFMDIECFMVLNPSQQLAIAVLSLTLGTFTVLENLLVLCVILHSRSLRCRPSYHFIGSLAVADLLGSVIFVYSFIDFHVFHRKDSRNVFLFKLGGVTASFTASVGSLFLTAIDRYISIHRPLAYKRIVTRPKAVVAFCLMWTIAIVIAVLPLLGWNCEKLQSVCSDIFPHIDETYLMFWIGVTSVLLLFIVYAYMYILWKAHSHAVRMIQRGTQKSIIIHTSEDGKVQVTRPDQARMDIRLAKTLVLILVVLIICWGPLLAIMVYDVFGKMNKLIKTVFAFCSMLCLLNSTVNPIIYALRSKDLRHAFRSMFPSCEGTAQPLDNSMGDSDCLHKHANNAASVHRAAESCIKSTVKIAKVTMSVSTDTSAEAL

[4] = biological target: human cannabinoid receptor 2 (3HA-hCB2) (human) (UniProt P34972)
Chain of human cannabinoid receptor 2 (3HA-hCB2) (human) (P34972 whole entry): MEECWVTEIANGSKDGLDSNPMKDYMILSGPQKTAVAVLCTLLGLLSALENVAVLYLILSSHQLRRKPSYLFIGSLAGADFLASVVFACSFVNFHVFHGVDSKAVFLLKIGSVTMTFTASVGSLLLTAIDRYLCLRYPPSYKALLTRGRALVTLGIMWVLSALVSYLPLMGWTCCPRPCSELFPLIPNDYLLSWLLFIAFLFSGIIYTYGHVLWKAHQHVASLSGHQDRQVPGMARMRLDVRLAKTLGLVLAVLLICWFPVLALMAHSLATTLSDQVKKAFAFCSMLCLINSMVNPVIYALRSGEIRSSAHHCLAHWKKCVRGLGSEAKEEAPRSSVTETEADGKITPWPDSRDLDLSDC

[5] = biological target: human D2 dopamine receptor (3HA-hD2R) (human) (UniProt P14416); remark: listed apart in the source
[6] = biological target: human vasopressin receptor 2 (3HA-hV2R) (human) (UniProt P30518); remark: listed apart in the source
[7] = biological target: human cannabinoid receptor 1 (pplss-3HA-hCB1) (human) (UniProt P21554); remark: listed apart in the source
[8] = biological target: human cannabinoid receptor 2 (3HA-hCB2) (human) (UniProt P34972); remark: listed apart in the source
[9] = biological target: human vasopressin receptor 2 (3HA-hV2R) (human) (UniProt P30518); remark: listed apart in the source
[10] = biological target: human cannabinoid receptor 1 (pplss-3HA-hCB1) (human) (UniProt P21554); remark: listed apart in the source
[11] = biological target: human cannabinoid receptor 2 (3HA-hCB2) (human) (UniProt P34972); remark: listed apart in the source

Chain of human D2 dopamine receptor (3HA-hD2R) (human) (P14416 whole entry): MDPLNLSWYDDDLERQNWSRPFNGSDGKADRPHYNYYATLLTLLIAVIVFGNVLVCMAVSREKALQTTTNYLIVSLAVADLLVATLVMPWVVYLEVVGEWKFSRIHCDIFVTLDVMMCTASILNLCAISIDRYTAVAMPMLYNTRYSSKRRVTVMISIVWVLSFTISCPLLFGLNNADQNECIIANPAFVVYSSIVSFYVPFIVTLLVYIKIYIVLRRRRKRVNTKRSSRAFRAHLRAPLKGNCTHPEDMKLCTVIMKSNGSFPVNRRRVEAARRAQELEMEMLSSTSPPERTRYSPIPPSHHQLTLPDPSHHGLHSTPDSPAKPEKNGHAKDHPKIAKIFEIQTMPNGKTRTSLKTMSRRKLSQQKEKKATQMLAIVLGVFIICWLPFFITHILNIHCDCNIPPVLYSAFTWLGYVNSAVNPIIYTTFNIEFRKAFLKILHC
Chain of human β-arrestin-1 (Rluc8-hβ-arrestin-1-Sp1) (P49407 whole entry): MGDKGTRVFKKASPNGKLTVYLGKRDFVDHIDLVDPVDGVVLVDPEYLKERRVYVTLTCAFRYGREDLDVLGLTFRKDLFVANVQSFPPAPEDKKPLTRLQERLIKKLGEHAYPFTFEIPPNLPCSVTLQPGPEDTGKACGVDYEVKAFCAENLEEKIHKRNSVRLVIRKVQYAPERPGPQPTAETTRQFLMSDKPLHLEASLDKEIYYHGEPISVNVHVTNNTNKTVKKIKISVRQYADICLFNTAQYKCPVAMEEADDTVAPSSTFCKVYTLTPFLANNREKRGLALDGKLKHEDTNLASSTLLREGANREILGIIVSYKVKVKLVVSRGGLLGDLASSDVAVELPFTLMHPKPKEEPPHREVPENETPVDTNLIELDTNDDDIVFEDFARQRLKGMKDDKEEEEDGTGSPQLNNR
Chain of human β-arrestin-2 (Rluc8-hβ-arrestin-2-Sp1) (P32121 whole entry): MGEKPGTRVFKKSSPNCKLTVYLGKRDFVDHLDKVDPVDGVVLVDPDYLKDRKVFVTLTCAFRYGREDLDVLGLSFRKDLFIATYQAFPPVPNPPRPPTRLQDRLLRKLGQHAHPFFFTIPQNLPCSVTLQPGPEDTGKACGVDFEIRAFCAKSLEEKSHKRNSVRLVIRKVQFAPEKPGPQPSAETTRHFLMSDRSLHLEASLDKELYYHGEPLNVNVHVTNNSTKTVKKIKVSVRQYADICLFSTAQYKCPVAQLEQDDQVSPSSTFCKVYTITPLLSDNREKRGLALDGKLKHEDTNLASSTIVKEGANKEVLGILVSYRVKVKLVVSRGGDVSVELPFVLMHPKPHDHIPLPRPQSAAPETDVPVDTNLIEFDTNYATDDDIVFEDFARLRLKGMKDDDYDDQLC
Chain of bovine β-arrestin-2 (Rluc8-bβ-arrestin-2-Sp1) (P32120 whole entry): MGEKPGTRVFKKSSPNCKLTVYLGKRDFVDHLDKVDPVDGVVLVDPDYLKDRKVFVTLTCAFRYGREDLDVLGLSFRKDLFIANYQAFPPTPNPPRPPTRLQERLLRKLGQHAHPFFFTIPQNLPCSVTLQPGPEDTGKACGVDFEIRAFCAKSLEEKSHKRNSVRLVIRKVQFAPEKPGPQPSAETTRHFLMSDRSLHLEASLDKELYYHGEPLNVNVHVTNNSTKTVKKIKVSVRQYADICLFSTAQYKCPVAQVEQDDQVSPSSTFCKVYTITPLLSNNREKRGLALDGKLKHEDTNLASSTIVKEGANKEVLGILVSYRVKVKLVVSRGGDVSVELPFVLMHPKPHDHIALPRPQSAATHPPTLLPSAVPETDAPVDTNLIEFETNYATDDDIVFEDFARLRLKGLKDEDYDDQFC

bovine β-arrestin-2 (Rluc8-bβ-arrestin-2-Sp1) (from UniProt P32120 1-420) (natural protein)
Emax, arrestin translocation to the plasma membrane (BRET, AUC of 25 min); agonist dopamine [1]: 40.6 ΔBRET.sec
Emax, arrestin translocation to the plasma membrane (BRET, AUC of 25 min); agonist dopamine; GRK2 co-expressed [1]: 129 ΔBRET.sec
Emax, arrestin translocation to the plasma membrane (BRET, AUC of 25 min); agonist AVP [2]: 194 ΔBRET.sec
Emax, arrestin translocation to the plasma membrane (BRET, AUC of 25 min); agonist 2-AG [3]: 116 ΔBRET.sec
Emax, arrestin translocation to the plasma membrane (BRET, AUC of 25 min); agonist 2-AG; GRK2 co-expressed [3]: 91.7 ΔBRET.sec
Emax, arrestin translocation to the plasma membrane (BRET, AUC of 25 min); agonist AEA [3]: 32.1 ΔBRET.sec
Emax, arrestin translocation to the plasma membrane (BRET, AUC of 25 min); agonist CP55,940 [3]: 35.2 ΔBRET.sec
Emax, arrestin translocation to the plasma membrane (BRET, AUC of 25 min); agonist CP55,940; GRK2 co-expressed [3]: 58.9 ΔBRET.sec
Emax, arrestin translocation to the plasma membrane (BRET, AUC of 25 min); agonist WIN55,212-2 [3]: 72 ΔBRET.sec
efficacy at 10 μM BAY (NA, not active; no curve could be fitted), arrestin translocation to the plasma membrane (BRET, AUC of 25 min) [3]: 2.4 ΔBRET.sec
efficacy at 10 μM THC (NA, not active; no curve could be fitted), arrestin translocation to the plasma membrane (BRET, AUC of 25 min) [3]: 0.54 ΔBRET.sec
Emax, arrestin translocation to the plasma membrane (BRET, AUC of 25 min); agonist 2-AG [4]: 45 ΔBRET.sec
Emax, arrestin translocation to the plasma membrane (BRET, AUC of 25 min); agonist 2-AG; GRK2 co-expressed [4]: 75.7 ΔBRET.sec
Emax, arrestin translocation to the plasma membrane (BRET, AUC of 25 min); agonist CP55,940 [4]: 45.4 ΔBRET.sec
Emax, arrestin translocation to the plasma membrane (BRET, AUC of 25 min); agonist CP55,940; GRK2 co-expressed [4]: 70.9 ΔBRET.sec
Emax, arrestin translocation to the plasma membrane (BRET, AUC of 25 min); agonist JWH-015 [4]: 26.7 ΔBRET.sec
Emax, arrestin translocation to the plasma membrane (BRET, AUC of 25 min); agonist JWH-133 [4]: 49.7 ΔBRET.sec
Emax, arrestin translocation to the plasma membrane (BRET, AUC of 25 min); agonist WIN55,212-2 [4]: 25.6 ΔBRET.sec
efficacy at 10 μM THC (NA, not active; no curve could be fitted), arrestin translocation to the plasma membrane (BRET, AUC of 25 min) [4]: 2 ΔBRET.sec

human β-arrestin-1 (Rluc8-hβ-arrestin-1-Sp1) (from UniProt P49407 1-418) (natural protein)
Response, arrestin translocation to the plasma membrane (BRET, AUC of 25 min); 10 μM dopamine [5]: 17.9 ΔBRET.sec
Response, arrestin translocation to the plasma membrane (BRET, AUC of 25 min); 10 μM dopamine; GRK2 co-expressed [5]: 86.1 ΔBRET.sec
Emax, arrestin translocation to the plasma membrane (BRET, AUC of 25 min); agonist AVP [6]: 246 ΔBRET.sec
Response, arrestin translocation to the plasma membrane (BRET, AUC of 25 min); 1 μM CP55,940 (not significantly different from vehicle) [7]: 17.6 ΔBRET.sec
Response, arrestin translocation to the plasma membrane (BRET, AUC of 25 min); 1 μM CP55,940; GRK2 co-expressed (significantly different from vehicle) [7]: 28.1 ΔBRET.sec
Response, arrestin translocation to the plasma membrane (BRET, AUC of 25 min); 10 μM AEA (not significantly different from vehicle) [7]: 10 ΔBRET.sec
Response, arrestin translocation to the plasma membrane (BRET, AUC of 25 min); 10 μM BAY (not significantly different from vehicle) [7]: 1.4 ΔBRET.sec
Response, arrestin translocation to the plasma membrane (BRET, AUC of 25 min); 10 μM THC (not significantly different from vehicle) [7]: 16.2 ΔBRET.sec
Response, arrestin translocation to the plasma membrane (BRET, AUC of 25 min); 10 μM WIN55,212-2 (significantly different from vehicle) [7]: 36.2 ΔBRET.sec
Response, arrestin translocation to the plasma membrane (BRET, AUC of 25 min); 31.6 μM 2-AG (significantly different from vehicle) [7]: 51.8 ΔBRET.sec
Response, arrestin translocation to the plasma membrane (BRET, AUC of 25 min); 31.6 μM 2-AG; GRK2 co-expressed (significantly different from vehicle) [7]: 53 ΔBRET.sec
Response, arrestin translocation to the plasma membrane (BRET, AUC of 25 min); 1 μM CP55,940 (significantly different from vehicle) [8]: 20.5 ΔBRET.sec
Response, arrestin translocation to the plasma membrane (BRET, AUC of 25 min); 1 μM CP55,940; GRK2 co-expressed (significantly different from vehicle) [8]: 22.7 ΔBRET.sec
Response, arrestin translocation to the plasma membrane (BRET, AUC of 25 min); 10 μM JWH-015 (significantly different from vehicle) [8]: 31.2 ΔBRET.sec
Response, arrestin translocation to the plasma membrane (BRET, AUC of 25 min); 10 μM JWH-133 (not significantly different from vehicle) [8]: 4.9 ΔBRET.sec
Response, arrestin translocation to the plasma membrane (BRET, AUC of 25 min); 10 μM THC (significantly different from vehicle) [8]: 14.4 ΔBRET.sec
Response, arrestin translocation to the plasma membrane (BRET, AUC of 25 min); 10 μM WIN55,212-2 (not significantly different from vehicle) [8]: 3.2 ΔBRET.sec
Response, arrestin translocation to the plasma membrane (BRET, AUC of 25 min); 31.6 μM 2-AG (significantly different from vehicle) [8]: 14.7 ΔBRET.sec
Response, arrestin translocation to the plasma membrane (BRET, AUC of 25 min); 31.6 μM 2-AG; GRK2 co-expressed (significantly different from vehicle) [8]: 17.2 ΔBRET.sec

human β-arrestin-2 (Rluc8-hβ-arrestin-2-Sp1) (from UniProt P32121 1-409) (natural protein)
Emax, arrestin translocation to the plasma membrane (BRET, AUC of 25 min); agonist AVP [9]: 306 ΔBRET.sec
Emax, arrestin translocation to the plasma membrane (BRET, AUC of 25 min); agonist 2-AG [10]: 236 ΔBRET.sec
Emax, arrestin translocation to the plasma membrane (BRET, AUC of 25 min); agonist 2-AG; GRK2 co-expressed [10]: 150 ΔBRET.sec
Emax, arrestin translocation to the plasma membrane (BRET, AUC of 25 min); agonist AEA [10]: 47.9 ΔBRET.sec
Emax, arrestin translocation to the plasma membrane (BRET, AUC of 25 min); agonist CP55,940 [10]: 83.7 ΔBRET.sec
Emax, arrestin translocation to the plasma membrane (BRET, AUC of 25 min); agonist CP55,940; GRK2 co-expressed [10]: 120 ΔBRET.sec
Emax, arrestin translocation to the plasma membrane (BRET, AUC of 25 min); agonist WIN55,212-2 [10]: 164 ΔBRET.sec
efficacy at 10 μM BAY (NA, not active; no curve could be fitted), arrestin translocation to the plasma membrane (BRET, AUC of 25 min) [10]: 15.3 ΔBRET.sec
efficacy at 10 μM THC (NA, not active; no curve could be fitted), arrestin translocation to the plasma membrane (BRET, AUC of 25 min) [10]: 5.9 ΔBRET.sec
Emax, arrestin translocation to the plasma membrane (BRET, AUC of 25 min); agonist 2-AG [11]: 31.3 ΔBRET.sec
Emax, arrestin translocation to the plasma membrane (BRET, AUC of 25 min); agonist 2-AG; GRK2 co-expressed [11]: 68.7 ΔBRET.sec
Emax, arrestin translocation to the plasma membrane (BRET, AUC of 25 min); agonist CP55,940 [11]: 37.4 ΔBRET.sec
Emax, arrestin translocation to the plasma membrane (BRET, AUC of 25 min); agonist CP55,940; GRK2 co-expressed [11]: 70.4 ΔBRET.sec
Emax, arrestin translocation to the plasma membrane (BRET, AUC of 25 min); agonist JWH-015 [11]: 34 ΔBRET.sec
Emax, arrestin translocation to the plasma membrane (BRET, AUC of 25 min); agonist JWH-133 [11]: 37.8 ΔBRET.sec
Emax, arrestin translocation to the plasma membrane (BRET, AUC of 25 min); agonist WIN55,212-2 [11]: 24.4 ΔBRET.sec
efficacy at 10 μM THC (NA, not active; no curve could be fitted), arrestin translocation to the plasma membrane (BRET, AUC of 25 min) [11]: -3.8 ΔBRET.sec
